According to PMC9482650, “Quantitative fragmentomics allow affinity mapping of interactomes” (Nature Communications, 2022):

T1: LIN7B, Q9HAP6
T1 sequence (Q9HAP6 88-185, limits assumed, looked up): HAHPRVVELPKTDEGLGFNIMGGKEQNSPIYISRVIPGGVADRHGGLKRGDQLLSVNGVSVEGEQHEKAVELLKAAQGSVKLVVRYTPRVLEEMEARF

T2: DLG3_2, Q92796
T2 sequence (Q92796 221-321, limits assumed, looked up): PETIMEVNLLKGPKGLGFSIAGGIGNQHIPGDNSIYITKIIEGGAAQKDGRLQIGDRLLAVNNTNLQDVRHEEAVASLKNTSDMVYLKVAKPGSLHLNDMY

T3: DLG3_1, Q92796
T3 sequence (Q92796 125-227, limits assumed, looked up): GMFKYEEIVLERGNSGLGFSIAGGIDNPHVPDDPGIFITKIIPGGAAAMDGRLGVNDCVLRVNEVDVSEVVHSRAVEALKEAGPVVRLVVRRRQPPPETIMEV

T4: SYNJ2BP, P57105
T4 sequence (P57105 8-110, limits assumed, looked up): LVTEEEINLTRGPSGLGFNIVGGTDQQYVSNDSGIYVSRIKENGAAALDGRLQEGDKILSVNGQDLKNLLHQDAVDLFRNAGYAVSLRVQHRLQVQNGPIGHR

T5: MPDZ_10, O75970
T5 sequence (O75970 1624-1722, limits assumed, looked up): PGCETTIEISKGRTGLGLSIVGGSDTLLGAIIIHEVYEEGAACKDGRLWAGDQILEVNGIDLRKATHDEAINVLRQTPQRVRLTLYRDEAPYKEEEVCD

T6: HTRA3, P83110
T6 sequence (P83110 354-453, limits assumed, looked up): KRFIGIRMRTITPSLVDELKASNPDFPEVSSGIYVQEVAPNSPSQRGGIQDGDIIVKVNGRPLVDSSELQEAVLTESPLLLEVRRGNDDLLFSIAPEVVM

T7: DFNB31_1, Q9P202
T7 sequence (Q9P202 135-233, limits assumed, looked up): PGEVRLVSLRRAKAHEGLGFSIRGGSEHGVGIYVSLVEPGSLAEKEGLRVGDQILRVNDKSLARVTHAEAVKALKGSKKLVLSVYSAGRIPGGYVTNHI

T8: GRIP1_2, Q9Y3R0
T8 sequence (Q9Y3R0 145-248, limits assumed, looked up): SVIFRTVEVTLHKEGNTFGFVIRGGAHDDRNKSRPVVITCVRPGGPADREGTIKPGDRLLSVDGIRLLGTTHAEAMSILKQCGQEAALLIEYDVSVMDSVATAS

T9: PARD3B_1, Q8TEW8
T9 sequence (Q8TEW8 196-299, limits assumed, looked up): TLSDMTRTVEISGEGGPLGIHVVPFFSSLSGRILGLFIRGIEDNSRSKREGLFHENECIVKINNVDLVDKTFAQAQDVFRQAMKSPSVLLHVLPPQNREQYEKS

T10: GRIP1_4, Q9Y3R0
T10 sequence (Q9Y3R0 467-571, limits assumed, looked up): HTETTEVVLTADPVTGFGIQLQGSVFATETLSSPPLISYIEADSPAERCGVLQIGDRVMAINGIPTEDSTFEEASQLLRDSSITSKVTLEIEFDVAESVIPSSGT

T11: PTPN13_1, Q12923
T11 sequence (Q12923 1088-1188, limits assumed, looked up): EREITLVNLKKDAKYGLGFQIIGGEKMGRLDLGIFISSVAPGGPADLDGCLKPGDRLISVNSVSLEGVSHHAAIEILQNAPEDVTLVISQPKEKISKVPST

T12: RHPN1, Q8TCX5
T12 sequence (Q8TCX5 508-602, limits assumed, looked up): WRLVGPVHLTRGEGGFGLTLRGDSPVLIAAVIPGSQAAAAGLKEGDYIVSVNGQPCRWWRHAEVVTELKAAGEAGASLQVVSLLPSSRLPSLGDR


target: TJP1_3, Q07157; experiment: holdup assay; design: key: below the threshold = too weak to quantify, mostly under pKd 3.1 to 4; conditions: plain residues with an end cap or a label only (N-terminal biotin on a linker: ado-ado)
Sequence (Q07157 416-512): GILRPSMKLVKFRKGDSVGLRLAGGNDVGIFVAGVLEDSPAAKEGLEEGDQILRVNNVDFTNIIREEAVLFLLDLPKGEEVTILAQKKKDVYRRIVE

Binder	pKd
LPHGHSTTRV [NLGN4X, Q8N0W4]	below the threshold

target: T1, LIN7B, Q9HAP6; experiment: holdup assay; design: key: below the threshold = too weak to quantify, mostly under pKd 3.1 to 4; conditions: plain residues with an end cap or a label only (N-terminal biotin on a linker: ado-ado)

Binder	pKd
LPHGHSTTRV [NLGN4X, Q8N0W4]	3.66

target: T2, DLG3_2, Q92796; experiment: holdup assay; design: key: below the threshold = too weak to quantify, mostly under pKd 3.1 to 4; conditions: plain residues with an end cap or a label only (N-terminal biotin on a linker: ado-ado)

Binder	pKd
LPHGHSTTRV [NLGN4X, Q8N0W4]	3.85

target: T3, DLG3_1, Q92796; experiment: holdup assay; design: key: below the threshold = too weak to quantify, mostly under pKd 3.1 to 4; conditions: plain residues with an end cap or a label only (N-terminal biotin on a linker: ado-ado)

Binder	pKd
LPHGHSTTRV [NLGN4X, Q8N0W4]	below the threshold

target: TJP2_1, Q9UDY2; experiment: holdup assay; design: key: below the threshold = too weak to quantify, mostly under pKd 3.1 to 4; conditions: plain residues with an end cap or a label only (N-terminal biotin on a linker: ado-ado)
Sequence (Q9UDY2 24-128): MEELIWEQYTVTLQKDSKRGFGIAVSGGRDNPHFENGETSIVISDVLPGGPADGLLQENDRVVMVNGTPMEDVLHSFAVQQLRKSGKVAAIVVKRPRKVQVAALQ

Binder	pKd
LPHGHSTTRV [NLGN4X, Q8N0W4]	4.04

target: LAP2, Q96RT1; experiment: holdup assay; design: key: below the threshold = too weak to quantify, mostly under pKd 3.1 to 4; conditions: plain residues with an end cap or a label only (N-terminal biotin on a linker: ado-ado)
Sequence (Q96RT1 other isoform, or with tags, fused parts or gaps): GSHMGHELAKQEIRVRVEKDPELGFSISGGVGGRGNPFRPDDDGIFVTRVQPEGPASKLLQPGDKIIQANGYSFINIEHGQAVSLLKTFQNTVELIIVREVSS

Binder	pKd
LPHGHSTTRV [NLGN4X, Q8N0W4]	3.67

target: T4, SYNJ2BP, P57105; experiment: holdup assay; design: key: below the threshold = too weak to quantify, mostly under pKd 3.1 to 4; conditions: plain residues with an end cap or a label only (N-terminal biotin on a linker: ado-ado)

Binder	pKd
LPHGHSTTRV [NLGN4X, Q8N0W4]	3.9

target: IL16_1, Q14005; experiment: holdup assay; design: key: below the threshold = too weak to quantify, mostly under pKd 3.1 to 4; conditions: plain residues with an end cap or a label only (N-terminal biotin on a linker: ado-ado)
Sequence (Q14005 210-306): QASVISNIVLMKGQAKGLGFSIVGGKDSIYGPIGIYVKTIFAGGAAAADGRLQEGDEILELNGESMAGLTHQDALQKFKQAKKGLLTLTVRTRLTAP

Binder	pKd
LPHGHSTTRV [NLGN4X, Q8N0W4]	below the threshold

target: T5, MPDZ_10, O75970; experiment: holdup assay; design: key: below the threshold = too weak to quantify, mostly under pKd 3.1 to 4; conditions: plain residues with an end cap or a label only (N-terminal biotin on a linker: ado-ado)

Binder	pKd
LPHGHSTTRV [NLGN4X, Q8N0W4]	3.83

target: GORASP2, Q9H8Y8; experiment: holdup assay; design: key: below the threshold = too weak to quantify, mostly under pKd 3.1 to 4; conditions: plain residues with an end cap or a label only (N-terminal biotin on a linker: ado-ado)

Binder	pKd
LPHGHSTTRV [NLGN4X, Q8N0W4]	3.99

target: T6, HTRA3, P83110; experiment: holdup assay; design: key: below the threshold = too weak to quantify, mostly under pKd 3.1 to 4; conditions: plain residues with an end cap or a label only (N-terminal biotin on a linker: ado-ado)

Binder	pKd
LPHGHSTTRV [NLGN4X, Q8N0W4]	below the threshold

target: HTRA1, Q92743; experiment: holdup assay; design: key: below the threshold = too weak to quantify, mostly under pKd 3.1 to 4; conditions: plain residues with an end cap or a label only (N-terminal biotin on a linker: ado-ado)
Sequence (Q92743 360-477): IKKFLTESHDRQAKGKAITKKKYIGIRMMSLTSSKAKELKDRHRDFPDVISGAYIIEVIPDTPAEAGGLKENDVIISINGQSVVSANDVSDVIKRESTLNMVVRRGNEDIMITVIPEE

Binder	pKd
LPHGHSTTRV [NLGN4X, Q8N0W4]	3.72

target: T7, DFNB31_1, Q9P202; experiment: holdup assay; design: key: below the threshold = too weak to quantify, mostly under pKd 3.1 to 4; conditions: plain residues with an end cap or a label only (N-terminal biotin on a linker: ado-ado)

Binder	pKd
LPHGHSTTRV [NLGN4X, Q8N0W4]	4.06

target: Inadl_9, Q8NI35; experiment: holdup assay; design: key: below the threshold = too weak to quantify, mostly under pKd 3.1 to 4; conditions: plain residues with an end cap or a label only (N-terminal biotin on a linker: ado-ado)
Sequence (Q8NI35 1530-1615): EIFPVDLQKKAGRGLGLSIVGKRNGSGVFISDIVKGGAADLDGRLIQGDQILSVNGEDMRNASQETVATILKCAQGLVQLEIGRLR

Binder	pKd
LPHGHSTTRV [NLGN4X, Q8N0W4]	below the threshold

target: DLG4_1, P78352; experiment: holdup assay; design: key: below the threshold = too weak to quantify, mostly under pKd 3.1 to 4; conditions: plain residues with an end cap or a label only (N-terminal biotin on a linker: ado-ado)
Sequence (P78352 62-152): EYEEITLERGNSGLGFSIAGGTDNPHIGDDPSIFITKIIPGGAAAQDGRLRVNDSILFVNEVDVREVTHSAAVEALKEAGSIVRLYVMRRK

Binder	pKd
LPHGHSTTRV [NLGN4X, Q8N0W4]	3.51

target: T8, GRIP1_2, Q9Y3R0; experiment: holdup assay; design: key: below the threshold = too weak to quantify, mostly under pKd 3.1 to 4; conditions: plain residues with an end cap or a label only (N-terminal biotin on a linker: ado-ado)

Binder	pKd
LPHGHSTTRV [NLGN4X, Q8N0W4]	below the threshold

target: T9, PARD3B_1, Q8TEW8; experiment: holdup assay; design: key: below the threshold = too weak to quantify, mostly under pKd 3.1 to 4; conditions: plain residues with an end cap or a label only (N-terminal biotin on a linker: ado-ado)

Binder	pKd
LPHGHSTTRV [NLGN4X, Q8N0W4]	below the threshold

target: T10, GRIP1_4, Q9Y3R0; experiment: holdup assay; design: key: below the threshold = too weak to quantify, mostly under pKd 3.1 to 4; conditions: plain residues with an end cap or a label only (N-terminal biotin on a linker: ado-ado)

Binder	pKd
LPHGHSTTRV [NLGN4X, Q8N0W4]	below the threshold

target: Inadl_10, Q8NI35; experiment: holdup assay; design: key: below the threshold = too weak to quantify, mostly under pKd 3.1 to 4; conditions: plain residues with an end cap or a label only (N-terminal biotin on a linker: ado-ado)
Sequence (Q8NI35 1673-1763): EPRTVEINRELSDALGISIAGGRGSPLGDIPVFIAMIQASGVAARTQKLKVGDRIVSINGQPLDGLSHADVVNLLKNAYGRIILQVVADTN

Binder	pKd
LPHGHSTTRV [NLGN4X, Q8N0W4]	below the threshold

target: NHERF4_4, Q86UT5; experiment: holdup assay; design: key: below the threshold = too weak to quantify, mostly under pKd 3.1 to 4; conditions: plain residues with an end cap or a label only (N-terminal biotin on a linker: ado-ado)
Sequence (Q86UT5 464-550): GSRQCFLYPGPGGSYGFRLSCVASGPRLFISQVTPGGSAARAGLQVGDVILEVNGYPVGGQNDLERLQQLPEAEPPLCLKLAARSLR

Binder	pKd
LPHGHSTTRV [NLGN4X, Q8N0W4]	below the threshold

target: DLG1_3, Q12959; experiment: holdup assay; design: key: below the threshold = too weak to quantify, mostly under pKd 3.1 to 4; conditions: plain residues with an end cap or a label only (N-terminal biotin on a linker: ado-ado)
Sequence (Q12959 457-571): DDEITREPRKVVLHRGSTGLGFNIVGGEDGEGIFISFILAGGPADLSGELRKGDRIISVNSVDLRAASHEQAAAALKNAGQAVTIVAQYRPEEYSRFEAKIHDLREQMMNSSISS

Binder	pKd
LPHGHSTTRV [NLGN4X, Q8N0W4]	4.24

target: NOS1, P29475; experiment: holdup assay; design: key: below the threshold = too weak to quantify, mostly under pKd 3.1 to 4; conditions: plain residues with an end cap or a label only (N-terminal biotin on a linker: ado-ado)
Sequence (P29475 9-101): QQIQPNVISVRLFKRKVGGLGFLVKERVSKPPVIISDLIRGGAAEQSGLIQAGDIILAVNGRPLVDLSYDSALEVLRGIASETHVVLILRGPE

Binder	pKd
LPHGHSTTRV [NLGN4X, Q8N0W4]	3.76

target: Inadl_5, Q8NI35; experiment: holdup assay; design: key: below the threshold = too weak to quantify, mostly under pKd 3.1 to 4; conditions: plain residues with an end cap or a label only (N-terminal biotin on a linker: ado-ado)
Sequence (Q8NI35 673-780): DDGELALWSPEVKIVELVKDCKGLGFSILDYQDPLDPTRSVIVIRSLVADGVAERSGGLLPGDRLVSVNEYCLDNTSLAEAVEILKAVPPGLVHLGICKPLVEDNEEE

Binder	pKd
LPHGHSTTRV [NLGN4X, Q8N0W4]	below the threshold

target: T11, PTPN13_1, Q12923; experiment: holdup assay; design: key: below the threshold = too weak to quantify, mostly under pKd 3.1 to 4; conditions: plain residues with an end cap or a label only (N-terminal biotin on a linker: ado-ado)

Binder	pKd
LPHGHSTTRV [NLGN4X, Q8N0W4]	below the threshold

target: T12, RHPN1, Q8TCX5; experiment: holdup assay; design: key: below the threshold = too weak to quantify, mostly under pKd 3.1 to 4; conditions: plain residues with an end cap or a label only (N-terminal biotin on a linker: ado-ado)

Binder	pKd
LPHGHSTTRV [NLGN4X, Q8N0W4]	4.04
